{
  "source": "patent US20100266532A1",
  "about": "“METHODS FOR INHIBITING SCARRING” (Renovo Limited, priority 2007, published 2010)",
  "molecules": {"B1": {"name": "IL-10: interleukin-10, anti-scarring agent; amino acid sequence of human IL-10 in Sequence ID No. 3 (protein, listed as Homo sapiens)", "chain": "MSPGQGTQSENSCTHFPGNLPNMLRDLRDAFSRVKTFFQMKDQLDNLLLKESLLEDFKGYLGCQALSEMIQFYLEEVMPQAENQDPDIKAHVNSLGENLKTLRLRLRRCHRFLPCENKSKAVEQVKNAFNKLQEKGIYKAMSEFDIFINYIEAYMTMKIRN"}},
  "key": {"[1]": {"system": "1 cm incisional rat wounds", "test": "Reduction in scarring of rat wounds treated with IL-10 in two incidences of treatment", "format": "in vivo", "conditions": "for percentage reduction in scarring compared to placebo control: approximately 24 hours apart", "experimental": "FIG. 13 is a graph showing the percentage reduction in scarring, as compared to placebo control, achieved in scars formed on healing of 1 cm incisional rat wounds treated with IL-10 administered by means of intradermal injection in two incidences of treatment, the first prior to wounding and the second approximately 24 hours later. Wounds dosed with IL-10 received either two injections of 500 ng/100 μl IL-10, two injections of 1000 ng/100 μl IL-10, or an escalating dose regime in accordance with the present invention, in which the first injection comprised 500 ng/100 μl IL-10 and the second injection comprised 1000 ng/100 μl IL-10.\nArrow heads mark the ends of the scars 70 days post wounding."}, "[2]": {"system": "inflammatory cells in 1 cm incisional rat wounds", "test": "Percentage of inflammatory cells (CD68 staining) in rat wounds", "format": "in vivo", "conditions": "3 days post treatment", "from_the_text": "Wounds were excised from the experimental rats at 3 days post treatment, fixed in 10% (v/v) buffered formal saline, processed for histology and stained with CD68 to assess inflammatory cell numbers."}},
  "data": [
    {"molecule": "B1", "values": [
      {"measurement": "inhibition of scarring, macroscopic images", "setting": "[1]; escalating 500 then 1000 ng/100 μl versus 500 ng/100 μl twice, 70 days post wounding", "result": "greater inhibition of scarring"},
      {"measurement": "reduction in scarring versus constant doses", "setting": "[1]; escalating: 500 ng/100 μl then 1000 ng/100 μl approximately 24 hours later", "result": "much larger magnitude of effect"},
      {"measurement": "percentage reduction in scarring compared to placebo control", "setting": "[1]; two injections of 500 ng/100 μl", "result": 27.5, "unit": "%"},
      {"measurement": "percentage reduction in scarring compared to placebo control", "setting": "[1]; two injections of 1000 ng/100 μl", "result": 22.8, "unit": "%"},
      {"measurement": "infiltration of inflammatory cells into the wound compared to controls", "setting": "[2]", "result": "reduces infiltration of inflammatory cells"},
      {"measurement": "inflammatory cell numbers versus same dose given twice", "setting": "[2]; escalating: 500 ng/100 μl then 1000 ng/100 μl", "result": "surprisingly marked decrease in inflammatory cell numbers"}
    ]}
  ]
}
